Square brackets hold non-standard residues; d marks the D form. Ends that are not written are not given here.
Key:
eIF4E = target: T1, eIF4E (Homo sapiens, UniProt P06730); assay: Streptavidin-agarose pull-down of biotinylated peptide from OVCAR-3 cell lysate, Western blot with eIF4E antibody; assay type: binding; conditions: biotinylated peptide 3 micromoles per liter, 250 micrograms OVCAR-3 cell lysate
T1 construct: endogenous in cells; host or cells: OVCAR-3 cell lysate
Procedure: FIGS. 1A-1G. 4EBP peptides bind eIF4E and inhibit binding of eIF4E to eIF4G. (FIG. 1A) Sequences of peptides comprising residues 49 to 68 of 4EBP1 and 4EBP2. (FIG. 1B) Biotinylated peptides (3 micromoles per liter) were incubated with 250 micrograms of OVCAR-3 cell lysate. Peptides were pulled-down using streptavidin-agarose. Precipitates (P) and supernatants (S) were analyzed by Western blot using eIF4E antibody. In (FIG. 1C), immunoprecipitation was performed using eIF4E antibody, and Western blot performed using eIF4G antibody. (FIG. 1D) Sequences of wild-type and mutant 4EBP peptides fused to TAT (mutant residues are highlighted). (FIG. 1E) OVCAR-3 cells were treated with biotinylated peptides (3 micromoles per liter, final concentration) for 16 hours. Internalized peptides were detected by staining fixed cells with Texas Red-conjugated streptavidin. Nuclei were visualized by staining with 4′,6-Diamidino-2-Phenylindole (DAPI). (FIGS. 1F and 1G) OVCAR-3 cell lysates were incubated with peptides as described for FIG. 1B. In (FIG. 1F), immunoprecipitation was performed using streptavidin-agarose and Western blot performed using eIF4E antibody. In (FIG. 1G), immunoprecipitation was performed using eIF4E antibody, and Western blot performed using eIF4G antibody.
FIGS. 3A-3H. Uptake, binding and inhibitory effects of [DLys6]GnRH-4EBP fusion peptides. (FIG. 3A) Sequences of [DLys6]GnRH, and wild-type and mutant 4EBP1 peptides fused to the agonist. (FIG. 3B) Western blot of GnRH-RI levels in OVCAR-3, ES-2, MDA-MB-231, BJ, HUVEC and SKOV3 cells. (FIG. 3C) Detection of biotinylated peptides in OVCAR-3 and SKOV3 by Texas Red-conjugated streptavidin at 16 hours after peptide addition (3 micromoles per liter). In (FIGS. 3D and 3E), biotinylated peptides were incubated with OVCAR-3 cell lysate as described in FIG. 1. In (FIG. 3D), peptide was pulled down using streptavidin-agarose. Precipitates (P) and supernatants (S) were analyzed by Western blot using eIF4E antibody. In (FIG. 3E), immunoprecipitation was performed using eIF4E antibody, and Western blot performed using eIF4G antibody. (FIG. 3F) R-Luc and F-Luc activities were assayed in ES-2-DualLuc cells at 6 hours after addition of the indicated concentrations of peptides, and are expressed relative to the respective luciferase activities in cells incubated without peptide. Shown are results of triplicate assays performed independently two times, and the statistical significance of differences in relative R-Luc and F-Luc activities in cells treated with peptide at a concentration of 10 micromoles per liter (FIG. 3G) Cells of GnRH-RI-positive and -negative lines were treated with the indicated concentrations of peptides. […]

[1] = system: GnRH-RI-positive and -negative lines; assay: Cell viability assay across cell lines; assay type: cell-based; conditions: 3 days
Procedure: FIGS. 3A-3H. Uptake, binding and inhibitory effects of [DLys6]GnRH-4EBP fusion peptides. (FIG. 3A) Sequences of [DLys6]GnRH, and wild-type and mutant 4EBP1 peptides fused to the agonist. (FIG. 3B) Western blot of GnRH-RI levels in OVCAR-3, ES-2, MDA-MB-231, BJ, HUVEC and SKOV3 cells. (FIG. 3C) Detection of biotinylated peptides in OVCAR-3 and SKOV3 by Texas Red-conjugated streptavidin at 16 hours after peptide addition (3 micromoles per liter). In (FIGS. 3D and 3E), biotinylated peptides were incubated with OVCAR-3 cell lysate as described in FIG. 1. In (FIG. 3D), peptide was pulled down using streptavidin-agarose. Precipitates (P) and supernatants (S) were analyzed by Western blot using eIF4E antibody. In (FIG. 3E), immunoprecipitation was performed using eIF4E antibody, and Western blot performed using eIF4G antibody. […]
FIGS. 14A-14B. […] Viability of cells at 3 days after peptide addition was measured by crystal violet staining and is expressed relative to viability of cells incubated with no peptide. […] Staining of cells with FITC-Annexin V and PI was analyzed by flow cytometry.
Cell viability and TUNEL assays. […] Cells were stained with 0.5% crystal violet solution, and absorbance measured at 570 nm. […] Cells were fixed in 70% ethanol and the extent of apoptosis was determined by flow cytometric analysis of TUNEL-staining using the APO-BRDU kit (Phoenix Flow Systems, San Diego Calif.). […]

T1 sequence (P06730 whole entry): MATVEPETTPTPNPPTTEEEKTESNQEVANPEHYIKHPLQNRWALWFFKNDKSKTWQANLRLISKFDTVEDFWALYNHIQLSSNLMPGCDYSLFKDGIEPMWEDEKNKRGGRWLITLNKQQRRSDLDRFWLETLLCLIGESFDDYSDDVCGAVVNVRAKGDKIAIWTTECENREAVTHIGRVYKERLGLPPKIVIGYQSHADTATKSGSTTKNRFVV

Substance: [DLys6]GnRH: GnRH agonist with a D-amino acid substitution at position 6; GnRH-RI-targeting moiety (QHWSY[dK]LRPG; not fully specified (residue 1, C-terminus); ends and bridges not checked)
- binding of peptide to eIF4E (eIF4E): did not bind
- cell growth across lines [1]: did not significantly inhibit cell growth
